Source: IntAct's records for PubMed 9722563

B1: Integrin beta-1 (Gallus gallus (Chicken)), P07228 (parent)
chain: MAETNLTLLTWAGILCCLIWSGSAQQGGSDCIKANAKSCGECIQAGPNCGWCKKTDFLQEGEPTSARCDDLAALKSKGCPEQDIENPRGSKRVLEDREVTNRKIGAAEKLKPEAITQIQPQKLVLQLRVGEPQTFSLKFKRAEDYPIDLYYLMDLSYSMKDDLENVKSLGTALMREMEKITSDFRIGFGSFVEKTVMPYISTTPAKLRNPCTGDQNCTSPFSYKNVLSLTSEGNKFNELVGKQHISGNLDSPEGGFDAIMQVAVCGDQIGWRNVTRLLVFSTDAGFHFAGDGKLGGIVLPNDGKCHLENNMYTMSHYYDYPSIAHLVQKLSENNIQTIFAVTEEFQAVYKELKNLIPKSAVGTLSSNSSNVIQLIIDAYNSLSSEVILENSKLPKEVTISYKSYCKNGVNDTQEDGRKCSNISIGDEVRFEINVTANECPKKGQNETIKIKPLGFTEEVEIHLQFICDCLCQSEGEPNSPACHDGNGTFECGACRCNEGRIGRLCECSTDEVNSEDMDAYCRRENSTEICSNNGECICGQCVCKKRENTNEVYSGKYCECDNFNCDRSNGLICGGNGICKCRVCECFPNFTGSACDCSLDTTPCMAGNGQICNGRGTCECGTCNCTDPKFQGPTCEMCQTCLGVCAEHKDCVQCRAFEKGEKKETCSQECMHFNMTRVESRGKLPQPVHPDPLSHCKEKDVGDCWFYFTYSVNSNGEASVHVVETPECPSGPDIIPIVAGVVAGIVLIGLALLLIWKLLMIIHDRREFAKFEKEKMNAKWDTGENPIYKSAVTTVVNPKYEGK

Variants of: B1
Settings: with flna_human FLNA

Row | Variant | effect of a mutation on the interaction
1 | N785D | decreasing interaction
2 | Y788A | disrupting interaction
3 | P786A | decreasing interaction
4 | D764V | decreasing interaction

Continued, values first:

Row | effect of a mutation on the interaction | Variant
5 | decreasing interaction | Y788F
6 | disrupting interaction | Y788E
7 | decreasing interaction | N797D
8 | decreasing interaction | N797I
